Here are results for one molecule from patent publication US20170298146A1 (MODIQUEST B V, published 2017).

Non-standard residues stand in square brackets, D forms with d. No end group written: not given here. Cit = NC(=O)NCCC[C@H](N)C(=O)O

For experiment [1], the target named is T1, msFibβ XG (mouse, also: biotin label).
T1 peptide: EPTDSLDA[Cit]GHRPVDRR
Nature of the experiment: peptide ELISA, 0.08 ug/well. As to the method: (§1) Biotin and citrulline-containing peptides derived from fibrinogen and vimentin were immobilized on NEUTRAVIDIN®-coated 96-well ELISA plates (0.3 μg/well). CFC-1 and CFC-0 were coated at the same concentration and served as positive and negative controls respectively for specific anti-citrulline reactivity and as coating controls. Non-coated wells were used to test for aspecific binding of the antibodies. […] Detection of bound anti-citrulline antibodies was performed by incubating the wells with rabbit-anti-human-HRP (1:2000) for one hour at RT followed by incubation with TMB substrate. The resulting OD (y-axis) is a measure for antibody binding.
(§2) Biotin-labeled and citrulline-containing fibrinogen and vimentin peptides (Table 5) were also tested for reactivity with the therapeutic antibodies. Peptides were coated on 96-well NEUTRAVIDIN®-ELISA plates.

Experiment [2] concerns the target T2, msFibα XH (mouse, X at position 15 is citrulline; biotin label).
T2 peptide: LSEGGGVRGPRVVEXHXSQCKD
Put plainly: peptide ELISA, 0.08 ug/well. On the procedure: as §1, §2
(In general: ELISA stands for enzyme-linked immunosorbent assay.)

In experiment [3] the target is T3, CFC-1.
T3 construct: Positive control for anti-citrulline reactivity; also called cfc1 XG
Put plainly: peptide ELISA, 0.08 ug/well. On the procedure: as §1, §2

The target of experiment [4] is T4, msVim XS/XL (mouse, also: biotin label).
T4 construct: also called mouse vimentin peptide
T4 peptide: YVT[Cit]SSAV[Cit]L[Cit]SSVP
Nature of the experiment: peptide ELISA, 0.08 ug/well. As to the method: as §1, §2

Experiment [5] addresses T5, huFibα XG (human, X at position 8 is citrulline; biotin label).
T5 peptide: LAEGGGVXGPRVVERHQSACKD
Nature of the experiment: peptide ELISA, 0.08 ug/well. On the procedure:
as §1, §2

For experiment [6], the target named is T6, msFibα XG (mouse, X at position 8 is citrulline; biotin label).
T6 peptide: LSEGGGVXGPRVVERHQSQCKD
Put plainly: peptide ELISA, 0.08 ug/well. On the procedure:
as §1, §2

Experiment [7] deals with T7, huFibα XH (human, X at position 15 is citrulline; biotin label).
T7 peptide: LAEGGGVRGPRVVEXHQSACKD
Put plainly: peptide ELISA, 0.08 ug/well. As to the method: as §1, §2

For experiment [8], the target named is T1, msFibβ XG. Nature of the experiment: peptide ELISA, 0.000128 ug/well. As to the method: as §1, §2
The target of experiment [9] is T2, msFibα XH. Nature of the experiment: peptide ELISA, 0.000128 ug/well. As to the method:
as §1, §2

In experiment [10] the target is T3, CFC-1. Put plainly: peptide ELISA, 0.000128 ug/well. As to the method:
as §1, §2

Experiment [11] deals with T4, msVim XS/XL. Put plainly: peptide ELISA, 0.000128 ug/well. On the procedure: as §1, §2
For experiment [12], the target named is T5, huFibα XG. Nature of the experiment: peptide ELISA, 0.000128 ug/well. On the procedure:
as §1, §2

Experiment [13] addresses T6, msFibα XG. Put plainly: peptide ELISA, 0.000128 ug/well. On the procedure: as §1, §2
Experiment [14] has as its target T7, huFibα XH. Nature of the experiment: peptide ELISA, 0.000128 ug/well. As to the method: as §1, §2
Experiment [15] has as its target T1, msFibβ XG. Nature of the experiment: peptide ELISA, 0.016 ug/well. On the procedure:
as §1, §2

In experiment [16] the target is T2, msFibα XH. Nature of the experiment: peptide ELISA, 0.016 ug/well. As to the method: as §1, §2
Experiment [17] concerns the target T3, CFC-1. Put plainly: peptide ELISA, 0.016 ug/well. As to the method:
as §1, §2

Experiment [18] concerns the target T4, msVim XS/XL. Nature of the experiment: peptide ELISA, 0.016 ug/well. As to the method:
as §1, §2

Experiment [19] concerns the target T5, huFibα XG. Nature of the experiment: peptide ELISA, 0.016 ug/well. As to the method: as §1, §2
Experiment [20] has as its target T6, msFibα XG. Put plainly: peptide ELISA, 0.016 ug/well. On the procedure:
as §1, §2

For experiment [21], the target named is T7, huFibα XH. Nature of the experiment: peptide ELISA, 0.016 ug/well. As to the method: as §1, §2

B1: RhmAb2.102 (antibody, human IgG1, lambda)
heavy: not shown
light: QSVLTQPPSMSAAPGQKVTISCSGSSSNIGNNYVSWYQQVPGTAPKLLIYDDNKRPSGIPGRFSGSKSATSATLGITGLQAGDEADYYCGSWDDNLSVVLFGGGTKLTVLGQPKAAPSVTLFPPSSEELQANKATLVCLISDFYPGAVTVAWKADSSPVKAGVETTTPSKQSNNKYAASSYLSLTPEQWKSHRSYSCQVTHEGSTVEKTVAPTECS
notes: Human IgG1 lambda; also called Rhm2.102
For B1, the OD in experiment [1] was found to be 0.515 OD; in [2], 0.076 OD; in experiment [3], 3.03 OD; in [4], 0.515 OD; in [5], 0.186 OD; in experiment [6], 0.237 OD. The OD is 0.08 OD in [7]; 0.118 OD in [8]; 0.089 OD in [9]; 0.288 OD in experiment [10]; 0.133 OD in [11]; 0.115 OD in experiment [12]. In addition, the OD was found to be 0.119 OD in experiment [13]; 0.12 OD in experiment [14]; 0.174 OD in experiment [15]; 0.081 OD in experiment [16]; 1.22 OD in experiment [17]; 0.201 OD in experiment [18]. In addition, the OD in experiment [19] was found to be 0.103 OD; in experiment [20], 0.107 OD; in [21], 0.08 OD.
